How the values were obtained:
[1] = tested on: E. coli; settings: intracellular accumulation in pathway II strains
[2] = In vitro hydrolysis of IPP by purified Nudix hydrolase; format: biochemical; settings: purified enzyme with IPP; up to 16 hours
Experimental: All metabolites are analyzed by liquid chromatography mass spectrometry (LC-MS; Agilent Technologies 1200 Series HPLC system and Agilent Technologies 6210 time-of-flight mass spectrometer) on a ZIC-HILIC column (150 mm length, 2.1-mm internal diameter, and 3.5-μm particle size). Standard chemicals (IPP and IP) are purchased from Sigma-Aldrich (USA). Metabolites are eluted isocratically with a mobile phase composition of 64% (v/v) acetonitrile containing 50 mM ammonium acetate with a flow rate of 0.15 mL/min. IPP and IP from E. coli extracts or enzyme assay are quantified via […] calibration curves ranging from 781.25 nM to 200 μM.

[3] = In vitro hydrolysis of IP to isopentenol (purified enzyme or cell lysates); format: biochemical; settings: purified NudB or lysates of cells overexpressing the phosphatase
Experimental: To identify IP-hydrolyzing endogenous phosphatases, single gene knockout mutants of 36 phosphatases, of which substrates are mostly mono-phosphorylated metabolites, are retrieved from the Keio collection (Baba et al., 2006). 1 mL overnight cultures from each mutant are concentrated in 0.5 mL of 50 mM Tris-HCl (pH 8.0) buffer containing 1 mM DTT and ˜50 mg of glass beads (<100 μm, Sigma-Aldrich, USA). Cells are lysed by bead-beating for 2 min at 6.0 M/s (MP biomedicals Fast Prep, USA). After centrifugation of cell lysates at 20,000 g for 10 min, clear supernatant is used for assay reaction containing 0.5 mM isopentenyl monophosphate (IP). An equal volume of ethyl acetate is added to 100 μL of assay reaction after incubating overnight at 30° C., and isopentenol is extracted for 10 min by vigorous mixing.
Coding sequences of agp, aphA, and yqaB are amplified from BW25113 genome by PCR, and they are subsequently cloned to pBbE1a vector (Lee et al., 2011) for over-expression. Expression of these three genes are induced by addition of 0.5 mM IPTG to the cell cultures, and cell lysates of each sample are prepared with three biological replicates as described above for screening of the 36 mutants. 600 μL of assay reactions containing cell lysates, 1 mM DTT are prepared and the reaction is initiated by addition of 0.5 mM IP. […] Quantification of metabolites

C[C@@](O)(CCOP(=O)(O)O)CC(=O)O [MVAP, MVA monophosphate]
toxicity of accumulated metabolite to cells [1]: without any significant toxicity

B1: NudB: phosphatase (Nudix hydrolase) from E. coli (protein, UniProt P0AFC0 1-150, looked up)
Dihydroneopterin triphosphate …: MKDKVYKRPVSILVVIYAQDTKRVLMLQRRDDPDFWQSVTGSVEEGETAPQAAMREVKEEVTIDVVAEQLTLIDCQRTVEFEIFSHLRHRYAPGVTRNTESWFCLALPHERQIVFTEHLAYKWLDAPAAAALTKSWSNRQAIEQFVINAA
IPP hydrolysis product [2]: produces only IP
hydrolysis of IP to isopentenol [3]: do not show the activity of hydrolyzing IP to Isopentenol
